From US10138280B2, “Polypeptides targeting glycosylated MUC2 proteins, methods of synthesis, their nucleic acids and uses thereof” (INSTITUT PASTEUR, priority 2011, dated 2018)

Tests used:
human colonic mucus = biological target: T1, human colonic mucus (Homo sapiens, UniProt Q02817); assay: Staining of human colon explants, two-photons microscopy
T1 construct: Segments of human colon (ascending, descending and sigmoid colon) were obtained from fully informed patients undergoing surgery; from tissue; host or cells: healthy human colon segments (live explants, mucus collected from them, Carnoy- or formol-fixed sections)
Method: FIGS. 3A-3B. Cy5-MUB70 colonic mucus binding property. (FIG. 3A) HT-29 MTX living cells were incubated for 2 h with Cy5-MUB70 in a serum-free media. The resulting fluorescent signal (red) was visualized at the surface of the cell layer using an epifluorescent microscope. Z-projection, performed using ImageJ software, allowed 3D localization of Cy5-MUB70 fluorescence signal in the mucus layer. Bar is 10 μm (FIG. 3B) MPE and SHG imaging of the binding of Cy5-MUB70 to the human colonic mucus. […] Human tissue autofluorescence is detected in the same red channel as Cy5.
FIGS. 8A-8D. (FIG. 8A) Cell toxicity of Cy5-MUB70 tested on HT-29-MTX and Hela epithelial cells. Cell survival was assessed using Sytoxgreen dye on cultures exposed to 1 μg/mL Cy5-MUB70 from 0 to 10 h, as indicated. […] Resulting fluorescent staining was assessed using a two-photons microscope (see Methods). Z-projection, performed using ImageJ software, allows 3D localization of Cy5-MUB70 fluorescence signal. […] Human tissue autofluorescence is detected in the same red channel as Cy5. […]
Two-photons microscopy imaging of live healthy human colonic segment was performed using a commercial laser-scanning microscope (LSM710, Meta, Zeiss, Germany). Tissue autofluorescence and Cy5-MUB70 (1 μg·ml^−1) were detected using multiphoton excitation (MPE, red) and collagen was detected using second harmonic generation (SHG, green). […]

[1] = tested on: neutrophiles (white blood cells) in rabbit ileum sub-mucosa; assay: Staining of neutrophiles in rabbit ileum sub-mucosa; details: PFA 4% fixed rabbit ileum; colocalized with α-elastase (PMN) signal
Method: FIG. 13. Staining of individual neutrophiles (white blood cells) in rabbit ileum sub-mucosa. Cy5-MUB70 was incubated on PFA 4% fixed tissues. Signal was colocalized with an α-elastase (PMN) signal. (Primary antibody is α-elastase (PMN) 1:400 and secondary antibody is anti-mouse GFP 1:400, MUBCys5 1:400, Phalloidin-RRX 1:400). […] In particular, granules staining is achieved.

mouse colonic mucus = assay: Mucus staining on fixed tissues, mouse colon; details: fixed tissue, 1 μg/mL
Method: FIGS. 11A-11C. Mucus staining using Cy5-MUB70 on fixed tissues. (FIG. 11A) Guinea pig colon, (FIG. 11B) rabbit ileum and (FIG. 11C) mouse colon were fixed in PFA 4%. Immunofluorescent staining was performed using Cy5-MUB70 (1 μg/mL) (blue). Actin is stained in red (Phall.-RRX), Muc2 is stained in green (α-Muc2). Observations were performed using a confocal microscope. Bar is 50 μm.
Ex vivo human colon samples were obtained from Dr. E. Labruyère (Institut Pasteur) and tissue processing was performed as described previously and stored in serum free RMPI media (surgical procedure is described herein). Human mucinous carcinoma formamide fixed samples were obtained from Dr. T. Lazure (Hôpitaux Universitaires Paris-Sud, Kremlin-Bicêtre) and Pr. I. Sobhani (Hôpital Henri Mondor, Créteil). Rabbit colon and ileum samples were collected on naïve New Zealand white rabbits weighting 2.5-3 kg and fixed in PFA 3%. Same procedure was applied on intestine samples collected on guinea pigs (Charles River) and C57/B6 mice (Janvier).
Following PFA 4% or Carnoy fixation, as indicated, samples were washed in PBS, incubated at 4° C. in PBS containing 12% sucrose for 90 min, then in PBS with 18% sucrose overnight, and frozen in OCT (Sakura) on dry ice. 7 μm sections were obtained using a cryostat CM-3050 (Leica). […]

incubation time after which probe is widely detected in mucus layer (human colonic mucus; 1 mm thick mucus layer, human colon explant): 90 min
B1: Cy5-MUB70: Cy5-labelled MUB70 polypeptide, labelled via Cy5 maleimide on N-terminal cysteine (conjugate)
peptide: CVHVQYIDGETDQMLRQDDLDGYTDETIPYSTAEGIKKFEGDGYELFKDNFPAGEKFDNDDTNDQFYTVIF
mucus layer staining on human colon explants (human colonic mucus; ex vivo, 1 μg/mL, mucus width around 1000 μm, epithelium and lamina propria unstained): stained heterogeneously on the whole width
neutrophile staining in tissue [1]: binding specifically a neutrophile component
colonic mucus staining (mouse colonic mucus): not stained
